Assay results: US20240400614A1, “CLEAVABLE PEPTIDES AND METHODS OF USE THEREOF” (Bright Peak Therapeutics AG, priority 2023, published 2024)
Square brackets hold non-standard residues; d marks the D form. Ends that are not written are not given here. Tyr(3-NO2) = N[C@@H](Cc1ccc(O)c([N+](=O)[O-])c1)C(=O)O; 2Abz = Nc1ccccc1C(=O)O

Legend:
Assay type in all cases: biochemical
[1] = biological target: T1, MMP-9 (Homo sapiens, UniProt P14780); assay: FRET peptide cleavage efficiency with MMP-9 (standard pH 7.5; also pH 6.5); conditions: for % cleavage MMP-9 t = 15 min: t = 15 min (Table 9); for % cleavage MMP-9 t = 60 min: t = 60 min (Table 9); for % cleavage MMP-9 t = 120 min: t = 120 min (Table 9)
T1 construct: purchased SIGMA PF024

[2] = biological target: T2, matriptase (Homo sapiens, UniProt Q9Y5Y6); assay: FRET peptide cleavage efficiency with matriptase
T2 construct: purchased R&D Systems 3946-SEB
T2 sequence (Q9Y5Y6 615-855 limits assumed): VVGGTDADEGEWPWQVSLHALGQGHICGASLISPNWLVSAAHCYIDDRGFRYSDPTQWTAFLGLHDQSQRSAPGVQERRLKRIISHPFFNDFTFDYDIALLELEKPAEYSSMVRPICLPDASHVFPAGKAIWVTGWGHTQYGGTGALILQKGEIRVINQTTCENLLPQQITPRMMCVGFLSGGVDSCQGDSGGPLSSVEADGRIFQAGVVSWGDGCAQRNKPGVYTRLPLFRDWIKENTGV

[3] = biological target: uPA (Homo sapiens, UniProt P00749); assay: FRET peptide cleavage efficiency with uPA
[4] = biological target: T3, MMP-7 (Homo sapiens, UniProt P09237); assay: FRET peptide cleavage efficiency with MMP-7 (standard pH 7.5; also pH 6.5); conditions: for % cleavage MMP-7 t = 15 min: t = 15 min (Table 9); for % cleavage MMP-7 t = 60 min: t = 60 min (Table 9); for % cleavage MMP-7 t = 120 min: t = 120 min (Table 9)
T3 construct: purchased SIGMA CC1059
T3 sequence (P09237 95-267): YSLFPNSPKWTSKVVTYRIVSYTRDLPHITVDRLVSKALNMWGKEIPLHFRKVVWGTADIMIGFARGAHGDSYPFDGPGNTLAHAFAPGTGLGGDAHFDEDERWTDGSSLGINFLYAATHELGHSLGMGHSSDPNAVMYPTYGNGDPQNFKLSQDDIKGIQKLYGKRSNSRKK

[5] = biological target: T4, MMP-2 (Homo sapiens, UniProt P08253); assay: FRET peptide cleavage efficiency with MMP-2
T4 construct: purchased SIGMA PF023
T4 sequence (P08253 110-660): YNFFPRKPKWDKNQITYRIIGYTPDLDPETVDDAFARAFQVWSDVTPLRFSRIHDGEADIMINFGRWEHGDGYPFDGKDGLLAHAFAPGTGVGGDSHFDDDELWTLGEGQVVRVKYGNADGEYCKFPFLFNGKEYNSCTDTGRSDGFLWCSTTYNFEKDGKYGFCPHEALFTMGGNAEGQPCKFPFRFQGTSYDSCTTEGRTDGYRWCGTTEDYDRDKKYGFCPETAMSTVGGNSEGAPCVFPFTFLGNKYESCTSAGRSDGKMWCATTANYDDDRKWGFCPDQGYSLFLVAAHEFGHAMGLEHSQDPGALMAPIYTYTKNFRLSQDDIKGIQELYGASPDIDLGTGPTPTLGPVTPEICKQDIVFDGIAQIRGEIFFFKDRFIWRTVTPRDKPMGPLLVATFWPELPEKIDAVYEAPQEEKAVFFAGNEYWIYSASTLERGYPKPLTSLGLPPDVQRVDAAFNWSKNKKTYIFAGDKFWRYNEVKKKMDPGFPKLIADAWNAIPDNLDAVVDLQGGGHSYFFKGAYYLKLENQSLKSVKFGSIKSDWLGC

[6] = t = 15 min, 200 uM linker, 1 ug/ml protease, 37° C., buffer B pH 9.0
[7] = t = 60 min, 200 uM linker, 1 ug/ml protease, 37° C., buffer B pH 9.0
[8] = 200 uM linker, 1 ug/ml protease, 37° C., buffer B pH 9.0
[9] = 200 uM linker, 1 ug/ml protease, 37° C., buffer A pH 8.5
[10] = t = 60 min, 200 uM linker, 1 ug/ml protease, 37° C., buffer A pH 8.5
[11] = t = 120 min, 200 uM linker, 1 ug/ml protease, 37° C., buffer A pH 8.5
[12] = t = 15 min, 200 uM linker, 1 ug/ml protease, 37° C., buffer C pH 7.5
[13] = t = 60 min, 200 uM linker, 1 ug/ml protease, 37° C., buffer C pH 7.5
[14] = t = 120 min, 200 uM linker, 1 ug/ml protease, 37° C., buffer C pH 7.5

T1 sequence (P14780 94-707): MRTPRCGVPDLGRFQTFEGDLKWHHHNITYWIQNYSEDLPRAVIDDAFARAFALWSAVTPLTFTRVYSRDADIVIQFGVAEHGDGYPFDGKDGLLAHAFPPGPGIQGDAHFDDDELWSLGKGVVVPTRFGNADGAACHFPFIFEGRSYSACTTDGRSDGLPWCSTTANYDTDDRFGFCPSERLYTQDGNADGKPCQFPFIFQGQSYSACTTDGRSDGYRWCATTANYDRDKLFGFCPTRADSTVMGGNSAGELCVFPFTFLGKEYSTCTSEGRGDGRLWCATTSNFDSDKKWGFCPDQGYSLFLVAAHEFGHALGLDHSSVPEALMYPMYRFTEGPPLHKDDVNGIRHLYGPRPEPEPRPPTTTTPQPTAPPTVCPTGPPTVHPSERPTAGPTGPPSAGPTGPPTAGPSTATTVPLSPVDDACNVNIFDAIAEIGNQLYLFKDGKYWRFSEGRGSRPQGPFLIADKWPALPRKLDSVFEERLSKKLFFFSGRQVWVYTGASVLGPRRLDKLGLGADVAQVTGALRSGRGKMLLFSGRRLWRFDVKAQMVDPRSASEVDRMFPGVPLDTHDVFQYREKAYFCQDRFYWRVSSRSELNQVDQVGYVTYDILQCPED

% cleavage MMP-9 t = 15 min [1] [%]	% cleavage MMP-9 t = 60 min [1] [%]	% cleavage MMP-9 t = 120 min [1] [%]	% cleavage Matriptase t = 15 min ([2]; pH 6.5, t = 15 min (Table 7)) [%]	% cleavage Matriptase t = 60 min ([2]; pH 6.5, t = 60 min (Table 7)) [%]	% cleavage Matriptase t = 15 min ([2]; pH 7.5, t = 15 min (Table 7)) [%]	% cleavage Matriptase t = 60 min ([2]; pH 7.5, t = 60 min (Table 7)) [%]	% cleavage Matriptase t = 15 min [2, 6] [%]	% cleavage Matriptase t = 60 min [2, 7] [%]	% cleavage Matriptase t = 120 min [2, 8] [%]	% cleavage uPA t = 60 min ([3]; pH 6.5, t = 60 min (Table 7)) [%]	% cleavage uPA t = 120 min ([3]; pH 6.5, t = 120 min (Table 7)) [%]	% cleavage uPA t = 60 min ([3]; pH 7.5, t = 60 min (Table 7)) [%]	% cleavage uPA t = 120 min ([3]; pH 7.5, t = 120 min (Table 7)) [%]	% cleavage uPA t = 15 min [3, 9] [%]	% cleavage uPA t = 60 min [3, 10] [%]	% cleavage uPA t = 120 min [3, 11] [%]	% cleavage MMP-7 t = 15 min [4] [%]	% cleavage MMP-7 t = 60 min [4] [%]	% cleavage MMP-7 t = 120 min [4] [%]	further results	Sequence
98	99	100	70	100	100	100	97	95	95	0	0	0	0	0	2	7	25	79	100	% cleavage MMP-2 t = 15 min ([5]; pH 6.5, t = 15 min (Table 7)): 100%; % cleavage MMP-2 t = 60 min ([5]; pH 6.5, t = 60 min (Table 7)): 100%; % cleavage MMP-2 t = 15 min ([5]; pH 7.5, t = 15 min (Table 7)): 100%; % cleavage MMP-2 t = 60 min ([5]; pH 7.5, t = 60 min (Table 7)): 100%; % cleavage MMP-2 t = 15 min ([5]; t = 15 min (Table 9)): 91%; % cleavage MMP-2 t = 15 min [5, 12]: 93%; % cleavage MMP-2 t = 60 min ([5]; t = 60 min (Table 9)): 96%; % cleavage MMP-2 t = 60 min [5, 13]: 97%; % cleavage MMP-2 t = 120 min ([5]; t = 120 min (Table 9)): 100%; % cleavage MMP-2 t = 120 min [5, 14]: 97%	SGRVLRKAGPANLVG ([2Abz]SGRVLRKAGPANLVG[Tyr(3-NO2)]-NH2) [LNK014]
22	72	93	48	93	98	100	96	91	88	0	0	0	0	3	10	20	19	62	86	% cleavage MMP-2 t = 15 min ([5]; pH 6.5, t = 15 min (Table 7)): 5%; % cleavage MMP-2 t = 60 min ([5]; pH 6.5, t = 60 min (Table 7)): 39%; % cleavage MMP-2 t = 15 min ([5]; pH 7.5, t = 15 min (Table 7)): 6%; % cleavage MMP-2 t = 60 min ([5]; pH 7.5, t = 60 min (Table 7)): 28%; % cleavage MMP-2 t = 15 min ([5]; t = 15 min (Table 9)): 7%; % cleavage MMP-2 t = 15 min [5, 12]: 8%; % cleavage MMP-2 t = 60 min ([5]; t = 60 min (Table 9)): 34%; % cleavage MMP-2 t = 60 min [5, 13]: 38%; % cleavage MMP-2 t = 120 min ([5]; t = 120 min (Table 9)): 59%; % cleavage MMP-2 t = 120 min [5, 14]: 65%	SGRVLRKAGPQPLVD ([2Abz]SGRVLRKAGPQPLVD[Tyr(3-NO2)]-NH2) [LNK003]
